According to patent US20220003777:

How the values were obtained:
[1] = target: T1, CD43, recombinant, P16150
T1 chain: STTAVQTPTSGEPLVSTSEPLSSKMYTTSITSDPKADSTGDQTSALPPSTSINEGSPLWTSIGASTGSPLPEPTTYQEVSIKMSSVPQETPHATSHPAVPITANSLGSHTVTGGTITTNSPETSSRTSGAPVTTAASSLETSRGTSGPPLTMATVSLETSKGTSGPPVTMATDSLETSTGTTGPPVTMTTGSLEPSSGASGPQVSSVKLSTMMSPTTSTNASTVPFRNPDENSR

fetuin, P12763 = target: T2, fetuin, P12763
T2 chain: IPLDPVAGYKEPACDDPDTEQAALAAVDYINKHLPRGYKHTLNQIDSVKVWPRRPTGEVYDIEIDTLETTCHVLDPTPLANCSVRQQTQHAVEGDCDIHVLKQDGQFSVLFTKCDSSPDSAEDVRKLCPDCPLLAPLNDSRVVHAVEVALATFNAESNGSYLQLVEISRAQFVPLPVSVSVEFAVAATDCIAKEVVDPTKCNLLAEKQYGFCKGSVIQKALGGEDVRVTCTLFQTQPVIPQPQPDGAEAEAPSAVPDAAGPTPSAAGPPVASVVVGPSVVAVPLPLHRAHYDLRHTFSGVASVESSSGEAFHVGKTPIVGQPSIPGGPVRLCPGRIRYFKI

[2] = target: MUC16, native human (cell lines, cell lysates and supernatants, cancer patient ascites), Q8WXI7
[3] = target: T3, podocalyxin, recombinant, O00592
T3 chain: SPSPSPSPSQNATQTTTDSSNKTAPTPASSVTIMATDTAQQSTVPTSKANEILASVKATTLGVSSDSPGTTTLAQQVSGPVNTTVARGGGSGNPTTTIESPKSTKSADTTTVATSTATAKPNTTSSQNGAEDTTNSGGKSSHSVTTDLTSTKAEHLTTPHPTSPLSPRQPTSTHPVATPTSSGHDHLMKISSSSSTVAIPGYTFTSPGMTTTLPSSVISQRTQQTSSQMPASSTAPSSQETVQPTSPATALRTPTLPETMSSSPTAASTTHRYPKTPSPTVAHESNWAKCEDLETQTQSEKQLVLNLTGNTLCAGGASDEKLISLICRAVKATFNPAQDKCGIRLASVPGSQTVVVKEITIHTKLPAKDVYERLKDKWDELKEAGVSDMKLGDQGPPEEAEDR

[4] = target: T4, Syncam-1, recombinant, Q9BY67
T4 chain: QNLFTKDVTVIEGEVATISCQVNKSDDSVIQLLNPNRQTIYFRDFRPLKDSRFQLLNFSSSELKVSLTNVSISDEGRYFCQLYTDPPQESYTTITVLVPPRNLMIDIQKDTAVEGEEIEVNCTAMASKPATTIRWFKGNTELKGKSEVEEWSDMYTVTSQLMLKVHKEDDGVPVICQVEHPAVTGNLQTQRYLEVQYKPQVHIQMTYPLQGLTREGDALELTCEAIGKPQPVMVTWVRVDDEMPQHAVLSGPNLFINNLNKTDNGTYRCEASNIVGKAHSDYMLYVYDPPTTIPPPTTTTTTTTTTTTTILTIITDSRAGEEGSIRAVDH

[5] = target: T5, PSGL-1, recombinant, Q14242
T5 chain: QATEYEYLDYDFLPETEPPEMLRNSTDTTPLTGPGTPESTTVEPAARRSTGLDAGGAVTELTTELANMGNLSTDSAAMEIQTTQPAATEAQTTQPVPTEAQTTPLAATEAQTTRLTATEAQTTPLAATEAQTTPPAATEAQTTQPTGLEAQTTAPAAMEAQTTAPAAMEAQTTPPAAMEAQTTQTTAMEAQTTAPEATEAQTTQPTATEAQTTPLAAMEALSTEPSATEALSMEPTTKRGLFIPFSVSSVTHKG

[6] = target: T6, recombinant human MUC16, Q8WXI7
T6 chain: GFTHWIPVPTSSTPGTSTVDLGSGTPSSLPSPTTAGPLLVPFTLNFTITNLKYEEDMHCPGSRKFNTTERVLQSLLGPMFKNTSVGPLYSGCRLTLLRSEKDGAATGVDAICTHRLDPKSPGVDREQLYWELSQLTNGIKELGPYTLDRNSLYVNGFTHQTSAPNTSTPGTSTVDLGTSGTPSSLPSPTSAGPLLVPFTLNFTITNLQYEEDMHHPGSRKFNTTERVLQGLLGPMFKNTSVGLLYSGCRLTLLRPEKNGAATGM

[7] = target: T7, CD45, recombinant, P08575
T7 chain: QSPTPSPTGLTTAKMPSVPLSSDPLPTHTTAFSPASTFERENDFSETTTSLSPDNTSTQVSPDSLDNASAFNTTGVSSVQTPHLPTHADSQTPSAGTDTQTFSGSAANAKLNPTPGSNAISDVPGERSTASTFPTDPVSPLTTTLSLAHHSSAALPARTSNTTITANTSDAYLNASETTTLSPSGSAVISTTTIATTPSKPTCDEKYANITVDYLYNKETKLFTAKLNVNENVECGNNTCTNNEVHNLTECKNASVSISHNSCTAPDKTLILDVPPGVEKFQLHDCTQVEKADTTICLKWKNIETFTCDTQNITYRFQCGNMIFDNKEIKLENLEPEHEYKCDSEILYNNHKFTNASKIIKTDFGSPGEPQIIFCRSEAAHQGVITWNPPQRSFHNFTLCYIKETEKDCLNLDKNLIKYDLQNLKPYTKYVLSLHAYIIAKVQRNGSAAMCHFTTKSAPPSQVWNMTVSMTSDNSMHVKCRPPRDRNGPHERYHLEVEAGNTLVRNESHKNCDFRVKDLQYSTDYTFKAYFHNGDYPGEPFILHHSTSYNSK

[8] = target: bovine serum albumin, P02769
[9] = target: T8, C1 esterase inhibitor, human plasma-derived, P05155
T8 chain: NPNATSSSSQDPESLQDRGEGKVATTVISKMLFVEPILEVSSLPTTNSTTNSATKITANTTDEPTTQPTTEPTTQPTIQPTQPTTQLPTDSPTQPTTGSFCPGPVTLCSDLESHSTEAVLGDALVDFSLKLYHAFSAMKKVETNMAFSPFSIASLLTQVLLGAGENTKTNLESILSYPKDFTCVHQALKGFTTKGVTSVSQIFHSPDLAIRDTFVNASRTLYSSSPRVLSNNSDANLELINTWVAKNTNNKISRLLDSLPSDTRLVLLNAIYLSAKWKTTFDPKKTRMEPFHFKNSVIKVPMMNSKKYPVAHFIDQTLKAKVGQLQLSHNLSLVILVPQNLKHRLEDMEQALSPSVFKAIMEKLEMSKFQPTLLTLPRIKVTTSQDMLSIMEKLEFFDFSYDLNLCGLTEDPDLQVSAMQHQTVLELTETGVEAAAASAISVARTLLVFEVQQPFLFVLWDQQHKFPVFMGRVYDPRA

[10] = target: T9, synthetic glycopeptide RPPIT*QSSL
T9 chain: RPPITQSSL

bovine serum albumin, P02769, sequence (P02769 25-607): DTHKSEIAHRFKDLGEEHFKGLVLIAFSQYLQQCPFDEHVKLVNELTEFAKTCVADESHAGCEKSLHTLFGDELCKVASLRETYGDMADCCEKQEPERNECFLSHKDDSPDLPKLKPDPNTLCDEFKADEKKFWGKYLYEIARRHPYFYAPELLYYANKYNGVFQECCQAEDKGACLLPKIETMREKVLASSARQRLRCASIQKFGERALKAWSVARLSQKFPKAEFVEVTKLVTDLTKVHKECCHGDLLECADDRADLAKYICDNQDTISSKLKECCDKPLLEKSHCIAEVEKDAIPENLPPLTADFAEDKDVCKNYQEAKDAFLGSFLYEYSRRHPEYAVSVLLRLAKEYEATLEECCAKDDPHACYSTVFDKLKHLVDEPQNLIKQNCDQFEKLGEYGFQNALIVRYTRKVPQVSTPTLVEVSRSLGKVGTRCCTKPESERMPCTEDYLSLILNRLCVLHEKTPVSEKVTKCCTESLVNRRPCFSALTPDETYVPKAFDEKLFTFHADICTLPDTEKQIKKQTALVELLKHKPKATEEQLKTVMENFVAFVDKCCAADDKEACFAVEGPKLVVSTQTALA

B1: Secreted Protease of C1 Esterase Inhibitor (StcE), recombinant N-terminal His-tagged (protein)
chain: ADNNSAIYFNTSQPINDLQGSLAAEVKFAQSQILPAHPKEGDSQPHLTSLRKSLLLVRPVKADDKTPVQVEARDDNNKILGTLTLYPPSSLPDTIYHLDGVPEGGIDFTPHNGTKKIINTVAEVNKLSDASGSSIHSHLTNNALVEIHTANGRWVRDIYLPQGPDLEGKMVRFVSSAGYSSTVFYGDRKVTLSVGNTLLFKYVNGQWFRSGELENNRITYAQHIWSAELPAHWIVPGLNLVIKQGNLSGRLNDIKIGAPGELLLHTIDIGMLTTPRDRFDFAKDKEAHREYFQTIPVSRMIVNNYAPLHLKEVMLPTGELLTDMDPGNGGWHSGTMRQRIGKELVSHGIDNANYGLNSTAGLGENSHPYVVAQLAAHNSRGNYANGIQVHGGSGGGGIVTLDSTLGNEFSHEVGHNYGLGHYVDGFKGSVHRSAENNNSTWGWDGDKKRFIPNFYPSQTNEKSCLNNQCQEPFDGHKFGFDAMAGGSPFSAANRFTMYTPNSSAIIQRFFENKAVFDSRSSTGFSKWNADTQEMEPYEHTIDRAEQITASVNELSESKMAELMAEYAVVKVHMWNGNWTRNIYIPTASADNRGSILTINHEAGYNSYLFINGDEKVVSQGYKKSFVSDGQFWKERDVVDTREARKPEQFGVPVTTLVGYYDPEGTLSSYIYPAMYGAYGFTYSDDSQNLSDNDCQLQVDTKEGQLRFRLANHRANNTVMNKFHINVPTESQPTQATLVCNNKILDTKSLTPAPEGLTYTVNGQALPAKENEGCIVSVNSGKRYCLPVGQRSGYSLPDWIVGQEVYVDSGAKAKVLLSDWDNLSYNRIGEFVGNVNPADMKKVKAWNGQYLDFSKPRSMRVVYK
cleavage of substrate (gel shift) [1]: cleaved all tested mucin-like glycoproteins | cleavage of substrate (gel shift) (fetuin, P12763): did not cleave | cleavage in ascites fluid (anti-MUC16 Western blot) [2]: dose-dependent decrease in apparent molecular weight | cleavage of substrate (gel shift) [3]: cleaved all tested mucin-like glycoproteins | cleavage of substrate (gel shift) [4]: cleaved all tested mucin-like glycoproteins | cleavage of substrate (gel shift) [5]: cleaved all tested mucin-like glycoproteins | cleavage of substrate (gel shift) [6]: cleaved all tested mucin-like glycoproteins | cleavage of substrate (gel shift) [7]: cleaved all tested mucin-like glycoproteins | cleavage of substrate (gel shift) [8]: did not cleave | cleavage of substrate (SDS-PAGE, glycoprotein stain) [9]: active against C11NH | cleavage of synthetic glycopeptide (MS) [10]: StcE cleaved a synthetic peptide containing a single GalNAc
